Measured values reported in US20220275090A1, “Combination Therapies with Anti-CD38 Antibodies and PARP or Adenosine Receptor Inhibitors” (Janssen Biotech, Inc., priority 2021, published 2022).

Biological target: T1, mouse CD38 (Mus musculus, UniProt P56528)
T1 sequence (P56528 1-304): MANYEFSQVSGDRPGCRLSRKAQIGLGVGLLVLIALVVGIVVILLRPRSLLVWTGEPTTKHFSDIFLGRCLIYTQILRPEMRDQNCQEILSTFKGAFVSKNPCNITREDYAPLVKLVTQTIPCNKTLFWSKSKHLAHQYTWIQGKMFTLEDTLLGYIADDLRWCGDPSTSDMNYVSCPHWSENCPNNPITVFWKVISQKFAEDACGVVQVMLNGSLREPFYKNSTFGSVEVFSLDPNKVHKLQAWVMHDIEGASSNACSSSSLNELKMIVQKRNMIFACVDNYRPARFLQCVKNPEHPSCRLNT
Test: Binding to mouse CD38 (statement)

binding to mouse CD38: does not bind
Substance: Daratumumab: anti-CD38 antibody of IgG1/κ subtype; heavy chain SEQ ID NO: 12, light chain SEQ ID NO: 13
